The target in the experiment is T1, PYD and CARD-deleted NLRP1 (NLRP1ΔΔ), molecule A of the ternary complex (human, UniProt Q9C000-1 148-1364).
T1 sequence (looked up): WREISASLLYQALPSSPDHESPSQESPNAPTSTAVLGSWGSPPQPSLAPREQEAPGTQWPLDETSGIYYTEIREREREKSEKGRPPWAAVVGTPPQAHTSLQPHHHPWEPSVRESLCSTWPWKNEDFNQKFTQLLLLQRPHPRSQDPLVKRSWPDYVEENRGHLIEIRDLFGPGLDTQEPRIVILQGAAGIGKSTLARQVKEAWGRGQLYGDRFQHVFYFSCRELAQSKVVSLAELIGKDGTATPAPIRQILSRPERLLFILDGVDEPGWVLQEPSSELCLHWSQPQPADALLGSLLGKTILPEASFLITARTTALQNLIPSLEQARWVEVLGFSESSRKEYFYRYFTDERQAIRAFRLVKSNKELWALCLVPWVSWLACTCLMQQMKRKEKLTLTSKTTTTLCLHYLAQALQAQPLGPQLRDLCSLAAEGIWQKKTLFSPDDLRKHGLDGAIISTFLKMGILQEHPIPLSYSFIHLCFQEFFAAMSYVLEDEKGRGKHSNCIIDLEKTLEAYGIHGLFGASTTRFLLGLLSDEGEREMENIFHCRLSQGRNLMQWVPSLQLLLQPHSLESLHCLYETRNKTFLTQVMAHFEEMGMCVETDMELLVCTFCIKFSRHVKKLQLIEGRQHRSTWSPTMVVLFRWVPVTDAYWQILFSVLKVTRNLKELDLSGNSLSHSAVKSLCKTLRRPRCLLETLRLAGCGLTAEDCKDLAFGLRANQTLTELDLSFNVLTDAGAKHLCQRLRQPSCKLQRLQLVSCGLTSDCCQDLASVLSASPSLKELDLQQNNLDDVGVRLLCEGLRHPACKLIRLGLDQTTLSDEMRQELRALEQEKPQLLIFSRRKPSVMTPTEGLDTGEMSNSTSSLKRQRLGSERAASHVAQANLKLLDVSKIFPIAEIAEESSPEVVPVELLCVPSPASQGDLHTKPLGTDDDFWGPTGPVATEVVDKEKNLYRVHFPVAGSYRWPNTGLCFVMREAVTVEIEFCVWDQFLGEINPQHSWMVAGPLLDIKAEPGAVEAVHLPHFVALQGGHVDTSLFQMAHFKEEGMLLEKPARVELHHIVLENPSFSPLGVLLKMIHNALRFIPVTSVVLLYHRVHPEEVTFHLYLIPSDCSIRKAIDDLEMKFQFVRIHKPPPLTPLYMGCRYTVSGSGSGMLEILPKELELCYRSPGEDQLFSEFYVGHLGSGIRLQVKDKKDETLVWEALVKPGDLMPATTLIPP
The experiment in a line: cryo-EM structure.

B1: NLRP1-CT derived from NLRP1ΔΔ (UPA subdomain only), molecule B of the ternary complex (domain or fragment, human, UniProt Q9C000-1 1213-1364, looked up)
chain: SPLGVLLKMIHNALRFIPVTSVVLLYHRVHPEEVTFHLYLIPSDCSIRKAIDDLEMKFQFVRIHKPPPLTPLYMGCRYTVSGSGSGMLEILPKELELCYRSPGEDQLFSEFYVGHLGSGIRLQVKDKKDETLVWEALVKPGDLMPATTLIPP
Turning to B1, the binding result is “binds”.

B2: DPP9, short isoform (His-TEV-DPP9), co-purified with NLRP1ΔΔ (enzyme, human)
chain: MATTGTPTADRGDAAATDDPAARFQVQKHSWDGLRSIIHGSRKYSGLIVNKAPHDFQFVQKTDESGPHSHRLYYLGMPYGSRENSLLYSEIPKKVRKEALLLLSWKQMLDHFQATPHHGVYSREEELLRERKRLGVFGITSYDFHSESGLFLFQASNSLFHCRDGGKNGFMVSPMKPLEIKTQCSGPRMDPKICPADPAFFSFINNSDLWVANIETGEERRLTFCHQGLSNVLDDPKSAGVATFVIQEEFDRFTGYWWCPTASWEGSEGLKTLRILYEEVDESEVEVIHVPSPALEERKTDSYRYPRTGSKNPKIALKLAEFQTDSQGKIVSTQEKELVQPFSSLFPKVEYIARAGWTRDGKYAWAMFLDRPQQWLQLVLLPPALFIPSTENEEQRLASARAVPRNVQPYVVYEEVTNVWINVHDIFYPFPQSEGEDELCFLRANECKTGFCHLYKVTAVLKSQGYDWSEPFSPGEDEFKCPIKEEIALTSGEWEVLARHGSKIWVNEETKLVYFQGTKDTPLEHHLYVVSYEAAGEIVRLTTPGFSHSCSMSQNFDMFVSHYSSVSTPPCVHVYKLSGPDDDPLHKQPRFWASMMEAASCPPDYVPPEIFHFHTRSDVRLYGMIYKPHALQPGKKHPTVLFVYGGPQVQLVNNSFKGIKYLRLNTLASLGYAVVVIDGRGSCQRGLRFEGALKNQMGQVEIEDQVEGLQFVAEKYGFIDLSRVAIHGWSYGGFLSLMGLIHKPQVFKVAIAGAPVTVWMAYDTGYTERYMDVPENNQHGYEAGSVALHVEKLPNEPNRLLILHGFLDENVHFFHTNFLVSQLIRAGKPYQLQIYPNERHSIRCPESGEHYEVTLLHFLQEYL
As for B2, the binding result is on record as “binds”.

The record behind these values is publication PMC8299537 (Nature, 2021).
